36 molecules from article PMC10786891, “Massively parallel profiling of RNA-targeting CRISPR-Cas13d” can be followed below.

First the molecules themselves.
T1: EsCas13d, nuclease-dead (Eubacterium siraeum, UniProt B0MS50, R295A;H300A;R849A;H854A)
T1 sequence: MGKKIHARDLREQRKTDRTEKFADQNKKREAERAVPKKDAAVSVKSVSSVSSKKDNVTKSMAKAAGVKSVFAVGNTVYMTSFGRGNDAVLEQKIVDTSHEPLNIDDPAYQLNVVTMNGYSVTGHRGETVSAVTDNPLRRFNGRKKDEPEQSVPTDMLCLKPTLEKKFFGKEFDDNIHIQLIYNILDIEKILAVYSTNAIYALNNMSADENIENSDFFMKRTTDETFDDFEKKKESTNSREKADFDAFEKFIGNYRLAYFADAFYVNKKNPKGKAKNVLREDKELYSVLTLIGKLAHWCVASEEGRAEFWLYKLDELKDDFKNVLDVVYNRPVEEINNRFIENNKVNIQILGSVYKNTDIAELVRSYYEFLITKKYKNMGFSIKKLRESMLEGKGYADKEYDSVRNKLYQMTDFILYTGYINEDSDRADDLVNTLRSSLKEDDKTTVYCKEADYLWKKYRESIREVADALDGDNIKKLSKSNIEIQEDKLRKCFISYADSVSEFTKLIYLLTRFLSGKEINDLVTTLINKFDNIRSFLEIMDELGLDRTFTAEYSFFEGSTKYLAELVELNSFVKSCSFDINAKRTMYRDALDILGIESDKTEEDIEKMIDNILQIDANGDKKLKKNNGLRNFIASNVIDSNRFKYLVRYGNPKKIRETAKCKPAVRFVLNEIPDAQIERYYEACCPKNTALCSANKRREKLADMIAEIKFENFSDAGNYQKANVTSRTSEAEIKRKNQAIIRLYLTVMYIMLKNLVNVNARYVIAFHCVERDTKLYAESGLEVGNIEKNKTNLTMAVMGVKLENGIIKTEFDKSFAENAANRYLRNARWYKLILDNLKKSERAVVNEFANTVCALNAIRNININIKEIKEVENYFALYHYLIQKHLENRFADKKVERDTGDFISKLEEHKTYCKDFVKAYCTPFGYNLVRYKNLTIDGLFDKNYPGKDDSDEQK

B1: target 2 MT 5'PFS UAG 3'PFS CAU (mixed)
RNA 1: CACCCGUGCAAAAUUGCAGGGGUCUAAAACCUUCUCCAAAUUGUUUCAUCCU
RNA 2: GGGAAUGGAUCCACAUCUACGAAUUCUAGAGGAUGAAACAAUUUGGAGAAGCAUAGAUCGGAAGAGCACACGU
B2: target 2 MT 5'PFS CAU 3'PFS CGA (mixed)
RNA 1: B1 RNA 1
RNA 2: B1 RNA 2 with U27C, G29U, A53G, U54A
B3: target 2 MT 5'PFS AAC 3'PFS UUA (mixed)
RNA 1: B1 RNA 1
RNA 2: B1 RNA 2 with U27A, G29C, C52U, A53U, U54A
B4: target 2 MT 5'PFS CUU 3'PFS CUA (mixed)
RNA 1: B1 RNA 1
RNA 2: B1 RNA 2 with U27C, A28U, G29U, A53U, U54A
B5: target 2 MT 5'PFS CGG 3'PFS AAU (mixed)
RNA 1: B1 RNA 1
RNA 2: B1 RNA 2 with U27C, A28G, C52A
B6: target 2 MT 5'PFS CUU 3'PFS CUC (mixed)
RNA 1: B1 RNA 1
RNA 2: B1 RNA 2 with U27C, A28U, G29U, A53U, U54C
B7: target 2 MT 5'PFS UUU 3'PFS CGA (mixed)
RNA 1: B1 RNA 1
RNA 2: B1 RNA 2 with A28U, G29U, A53G, U54A
B8: target 2 MT 5'PFS AUU 3'PFS CAC (mixed)
RNA 1: B1 RNA 1
RNA 2: B1 RNA 2 with U27A, A28U, G29U, U54C
B9: target 2 MT 5'PFS CAU 3'PFS CGG (mixed)
RNA 1: B1 RNA 1
RNA 2: B1 RNA 2 with U27C, G29U, A53G, U54G
B10: target 2 MT 5'PFS UGU 3'PFS UCU (mixed)
RNA 1: B1 RNA 1
RNA 2: B1 RNA 2 with A28G, G29U, C52U, A53C
B11: target 2 MT 5'PFS UCA 3'PFS UUC (mixed)
RNA 1: B1 RNA 1
RNA 2: B1 RNA 2 with A28C, G29A, C52U, A53U, U54C
B12: target 2 MT 5'PFS AAU 3'PFS UCG (mixed)
RNA 1: B1 RNA 1
RNA 2: B1 RNA 2 with U27A, G29U, C52U, A53C, U54G
B13: target 2 MT 5'PFS CGC 3'PFS UGC (mixed)
RNA 1: B1 RNA 1
RNA 2: B1 RNA 2 with U27C, A28G, G29C, C52U, A53G, U54C
B14: target 2 MT 5'PFS CUU 3'PFS CUU (mixed)
RNA 1: B1 RNA 1
RNA 2: B1 RNA 2 with U27C, A28U, G29U, A53U
B15: target 2 MT 5'PFS UAG 3'PFS ACU (mixed)
RNA 1: B1 RNA 1
RNA 2: B1 RNA 2 with C52A, A53C
B16: target 2 MT 5'PFS UUU 3'PFS CGC (mixed)
RNA 1: B1 RNA 1
RNA 2: B1 RNA 2 with A28U, G29U, A53G, U54C
B17: target 2 MT 5'PFS GGC 3'PFS UCA (mixed)
RNA 1: B1 RNA 1
RNA 2: B1 RNA 2 with U27G, A28G, G29C, C52U, A53C, U54A
B18: target 2 MT 5'PFS UCU 3'PFS AAC (mixed)
RNA 1: B1 RNA 1
RNA 2: B1 RNA 2 with A28C, G29U, C52A, U54C
B19: target 2 MT 5'PFS UGU 3'PFS UCG (mixed)
RNA 1: B1 RNA 1
RNA 2: B1 RNA 2 with A28G, G29U, C52U, A53C, U54G
B20: target 2 MT 5'PFS CGG 3'PFS CGC (mixed)
RNA 1: B1 RNA 1
RNA 2: B1 RNA 2 with U27C, A28G, A53G, U54C
B21: target 2 MT 5'PFS GGC 3'PFS UCG (mixed)
RNA 1: B1 RNA 1
RNA 2: B1 RNA 2 with U27G, A28G, G29C, C52U, A53C, U54G
B22: target 2 MT 5'PFS UCU 3'PFS AAG (mixed)
RNA 1: B1 RNA 1
RNA 2: B1 RNA 2 with A28C, G29U, C52A, U54G
B23: target 2 MT 5'PFS AUU 3'PFS CAG (mixed)
RNA 1: B1 RNA 1
RNA 2: B1 RNA 2 with U27A, A28U, G29U, U54G
B24: target 2 MT 5'PFS CUU 3'PFS CUG (mixed)
RNA 1: B1 RNA 1
RNA 2: B1 RNA 2 with U27C, A28U, G29U, A53U, U54G
B25: target 2 MT 5'PFS CGG 3'PFS CGA (mixed)
RNA 1: B1 RNA 1
RNA 2: B1 RNA 2 with U27C, A28G, A53G, U54A
B26: target 2 MT 5'PFS GCG 3'PFS CUA (mixed)
RNA 1: B1 RNA 1
RNA 2: B1 RNA 2 with U27G, A28C, A53U, U54A
B27: target 2 MT 5'PFS UUA 3'PFS GCC (mixed)
RNA 1: B1 RNA 1
RNA 2: B1 RNA 2 with A28U, G29A, C52G, A53C, U54C
B28: target 2 MT 5'PFS UCU 3'PFS AAA (mixed)
RNA 1: B1 RNA 1
RNA 2: B1 RNA 2 with A28C, G29U, C52A, U54A
B29: target 2 MT 5'PFS UCA 3'PFS UUA (mixed)
RNA 1: B1 RNA 1
RNA 2: B1 RNA 2 with A28C, G29A, C52U, A53U, U54A
B30: target 2 MT 5'PFS GGC 3'PFS UCC (mixed)
RNA 1: B1 RNA 1
RNA 2: B1 RNA 2 with U27G, A28G, G29C, C52U, A53C, U54C
B31: target 2 MT 5'PFS UCU 3'PFS AAU (mixed)
RNA 1: B1 RNA 1
RNA 2: B1 RNA 2 with A28C, G29U, C52A
B32: target 2 MT 5'PFS UUA 3'PFS GCA (mixed)
RNA 1: B1 RNA 1
RNA 2: B1 RNA 2 with A28U, G29A, C52G, A53C, U54A
B33: target 2 MT 5'PFS GCG 3'PFS CGG (mixed)
RNA 1: B1 RNA 1
RNA 2: B1 RNA 2 with U27G, A28C, A53G, U54G
B34: target 1 insU 3' of 21,insG 3' of 14 (mixed)
RNA 1: CACCCGUGCAAAAAUGCAGGGGUCUAAAACUGAGCGGAUAACCUCUCUAUGG
RNA 2: GGGAAUGGAUCCACAUCUACGAAUUCGUACCUAUAGAGAGGGUUAUCCGCUCACCGAGAUCGGAAGAGCACACGU
B35: target 1 G15A,C22A (mixed)
RNA 1: B34 RNA 1
RNA 2: GGGAAUGGAUCCACAUCUACGAAUUCGUAACAUAGAAAGGUUAUCCGCUCACCGAGAUCGGAAGAGCACACGU
B36: target 1 insA 3' of 8,insG 3' of 6 (mixed)
RNA 1: B34 RNA 1
RNA 2: GGGAAUGGAUCCACAUCUACGAAUUCGUACCAUAGAGAGGUUAUACCGGCUCACCGAGAUCGGAAGAGCACACGU

Residue numbers refer to the chain shown, from its start. Names may count otherwise.

The target in this data set is T1, EsCas13d, nuclease-dead. The data set can be described thus: crRNA (strand 1, pre-loaded); Mg2+; 40 mM Tris-HCl pH 7.5, 150 mM NaCl, 6 mM MgCl2, 1 mM DTT, 0.1% Tween-20, 0.2 mg/ml BSA; 25 C; 10 min per concentration, then washed. The note with it: tags: His6-TwinStrep-SUMO cleaved; N-terminal SNAP kept (SNAP-Surface 488); label: 3' end held by stalled T7 RNA polymerase.
For B1, the Kd (commonly the concentration at which binding is half-saturated) was found to be 3.7 ± 0.5 nM. Turning to B2, binding was put at a Kd of 3.8 ± 0.7 nM.

B3 came in with a Kd of 7.4 ± 1.7 nM. With B4, binding was put at a Kd of 10.8 ± 3.5 nM. For B5, the Kd turned out to be 4.8 ± 0.7 nM. The figure for B6 is 5.6 ± 0.5 nM; for B7 it is 8 ± 0.9 nM; for B8 it is 7.2 ± 0.7 nM. For B9 the value was 2.83 ± 0.35 nM. B10 yielded a Kd of 17.7 ± 2.2 nM. Turning to B11, binding was put at a Kd of 10.3 ± 2.3 nM. Consider B12, for which binding was characterised by a dissociation constant (Kd) of 6.4 ± 1 nM. Molecule B13 came in with a Kd of 6 ± 0.9 nM. B14 yielded a Kd of 4.7 ± 0.5 nM. For the molecule B15, the Kd was determined as 4.5 ± 0.5 nM. The figure for B16 is 6.4 ± 0.5 nM; for B17 it is 20.6 ± 3.1 nM. In turn, B18 yielded a Kd of 9.5 ± 1.7 nM. As to B19, the Kd amounted to 15.8 ± 2.5 nM. B20 returned a Kd of 3.81 ± 0.28 nM.

Turning to B21, the Kd came to 19.8 ± 3.1 nM. B22 yielded a Kd of 20 ± 6 nM. Consider B23, for which the affinity, expressed as Kd, was 6.9 ± 1.1 nM. B24 registered a Kd of 4.2 ± 0.8 nM. For the molecule B25, the Kd was determined as 3 ± 0.3 nM. As for B26, the Kd came out at 14.3 ± 2.7 nM. B27 displayed a Kd of 37 ± 12 nM. B28: the Kd came out at 20 ± 8 nM. As for B29, the Kd is 7.2 ± 1.1 nM. In turn, B30 displayed a Kd of 36 ± 9 nM. In turn, B31 came in with a Kd of 26 ± 10 nM. The figure for B32 is 14.7 ± 2.1 nM; for B33 it is 11.9 ± 1.2 nM.

Molecule B34 had a Kd of 39 ± 4 nM.

Molecule B35 showed a Kd of 20.6 ± 2.7 nM. B36 registered a Kd of 17.5 ± 0.9 nM.
